One experiment concerns the target rat PMEL17 (rat, UniProt D3ZED8 73-680). Put plainly: FACS titration of IgG on HKB11-rat PMEL17 cells, Alexa Fluor detection antibody. As for the experimental part:
(§1) Purified IgGs were titrated on a variety of PMEL17 expressing and PMEL17 non expressing cell lines (for control) to determine EC50 values. Cells were harvested using Accutase, adjusted to ˜4×10^6 cells/ml into FACS buffer (PBS, 3% FCS and 0.02% Na-Azide) and kept on ice to avoid internalization. 15 μl of cell suspension/well were transferred into 384 well V-bottom plates (Greiner, Cat #781280) and incubated with 15 μl of IgGs at different concentrations (most commonly from 200 to 3.5×10-3 nM) for 1 hour at 4° C., gently shaking. Following incubation, cells were washed three times with FACS buffer. After each washing step, cells were centrifuged (250×g, 5 min, 4° C.) and carefully resuspended. 15 p of detection antibody conjugated to PE (PE-conjugated goat anti-human IgG, F(ab′)₂ fragment specific, 1:150 in FACS buffer; Jackson Immuno Research, #109-116-097) or Alexa Fluor (Alexa Fluor-conjugated goat anti-human IgG, F(ab′)2 fragment specific, 1:150 in FACS buffer; Jackson Immuno Research, #109-606-097) were added and samples were incubated for 45 minutes to 1 hour on ice in the dark, gently shaking. After 3 washing steps, cells were resuspended in 30 μl of FACS buffer and samples were measured using the IntelliCyt HTFC device. EC50 values were calculated using the Graphpad Prism software.

The target of a further experiment is T1, cyno PMEL17 (cyno, UniProt A0A2K5WWN0 25-668).
T1 construct: whole, on cells; also called HKB11-cyno; HKB11-cyno-PMEL17
T1 sequence: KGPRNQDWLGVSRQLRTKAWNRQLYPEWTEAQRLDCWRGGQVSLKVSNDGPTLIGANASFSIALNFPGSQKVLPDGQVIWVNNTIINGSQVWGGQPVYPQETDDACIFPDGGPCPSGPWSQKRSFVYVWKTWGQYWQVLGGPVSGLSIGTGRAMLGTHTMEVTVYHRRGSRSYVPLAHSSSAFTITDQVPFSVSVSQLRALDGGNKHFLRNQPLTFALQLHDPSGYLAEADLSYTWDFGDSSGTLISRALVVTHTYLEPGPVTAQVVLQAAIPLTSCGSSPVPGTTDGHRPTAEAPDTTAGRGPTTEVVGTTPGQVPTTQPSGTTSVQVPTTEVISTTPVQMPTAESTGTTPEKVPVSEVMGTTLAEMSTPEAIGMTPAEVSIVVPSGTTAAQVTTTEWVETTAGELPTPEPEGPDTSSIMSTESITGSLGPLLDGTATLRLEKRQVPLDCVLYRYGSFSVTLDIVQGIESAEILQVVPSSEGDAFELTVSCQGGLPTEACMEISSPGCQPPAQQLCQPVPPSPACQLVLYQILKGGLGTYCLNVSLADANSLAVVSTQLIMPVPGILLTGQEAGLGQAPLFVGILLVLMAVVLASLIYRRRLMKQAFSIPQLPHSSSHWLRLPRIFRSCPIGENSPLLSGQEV
Put plainly: FACS titration of IgG on HKB11-cyno-PMEL17 cells, Alexa Fluor detection antibody. As for the experimental part: as §1

The target in another experiment is T2, mouse PMEL17 (mouse, UniProt Q60696 24-626).
T2 construct: whole, on cells; also called B16-F10 (mouse)
T2 sequence (looked up): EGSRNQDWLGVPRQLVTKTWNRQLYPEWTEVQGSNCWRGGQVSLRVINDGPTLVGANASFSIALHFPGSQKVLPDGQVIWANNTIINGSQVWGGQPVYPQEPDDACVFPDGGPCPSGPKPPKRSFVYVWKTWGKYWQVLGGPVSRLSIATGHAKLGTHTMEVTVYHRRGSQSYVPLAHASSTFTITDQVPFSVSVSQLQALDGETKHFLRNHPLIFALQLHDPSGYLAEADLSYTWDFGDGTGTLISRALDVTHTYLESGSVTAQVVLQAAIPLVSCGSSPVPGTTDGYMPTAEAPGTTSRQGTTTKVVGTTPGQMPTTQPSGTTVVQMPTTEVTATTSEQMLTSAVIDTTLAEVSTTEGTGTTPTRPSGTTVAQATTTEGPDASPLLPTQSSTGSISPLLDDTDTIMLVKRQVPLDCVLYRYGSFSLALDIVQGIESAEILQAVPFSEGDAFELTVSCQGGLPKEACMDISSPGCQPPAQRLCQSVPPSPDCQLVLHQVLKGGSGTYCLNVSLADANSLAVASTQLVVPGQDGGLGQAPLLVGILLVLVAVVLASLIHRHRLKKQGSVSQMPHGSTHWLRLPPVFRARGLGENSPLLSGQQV
Put plainly: FACS titration of IgG on B16-F10 cells (mouse melanoma), Alexa Fluor detection antibody. As for the experimental part:
as §1

Chain of rat PMEL17 (D3ZED8 entry or part of it): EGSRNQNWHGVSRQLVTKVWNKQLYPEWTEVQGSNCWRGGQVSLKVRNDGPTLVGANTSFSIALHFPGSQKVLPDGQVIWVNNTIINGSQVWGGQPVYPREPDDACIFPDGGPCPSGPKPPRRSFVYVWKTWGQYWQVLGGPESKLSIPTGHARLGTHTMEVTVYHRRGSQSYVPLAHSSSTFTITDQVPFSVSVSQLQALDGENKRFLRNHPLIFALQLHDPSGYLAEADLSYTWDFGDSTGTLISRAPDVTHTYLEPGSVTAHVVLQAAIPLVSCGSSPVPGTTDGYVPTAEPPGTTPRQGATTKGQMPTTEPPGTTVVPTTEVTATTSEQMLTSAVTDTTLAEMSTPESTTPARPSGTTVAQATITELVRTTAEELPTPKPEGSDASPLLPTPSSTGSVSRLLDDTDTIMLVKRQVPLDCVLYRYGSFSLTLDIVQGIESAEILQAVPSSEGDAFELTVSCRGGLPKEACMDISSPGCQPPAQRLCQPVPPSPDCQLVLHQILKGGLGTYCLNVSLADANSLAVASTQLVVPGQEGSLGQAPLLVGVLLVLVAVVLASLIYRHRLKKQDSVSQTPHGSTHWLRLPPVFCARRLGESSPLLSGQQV

B1: MOR024354 (antibody, V domains shown)
VH: QVQLLESGGGLVQPGGSLRLSCAASGFTFSSFGMSWVRQAPGKGLEWVSAISYSGSDTYYADSVKGRFTISRDNSKNTLYLQMNSLRAEDTAVYYCARDVGVMDYWGQGTLVTVSS
VL: SYELTQPLSVSVALGQTARITCSGDNLGTYYAHWYQQKPGQAPVLVIYSQSHRPSGIPERFSGSNSGNTATLTISRAQAGDEADYYCGAWDAPSPELVFGGGTKLTVL
notes: Tested as purified human IgG
For B1, the EC50 – broadly, the concentration that produces a half-maximal response – in the experiment with rat PMEL17 was 2.4 nM; with cyno PMEL17, 2.1 nM.

B2: Y010906 (antibody, V domains shown)
VH: EVQLVESGGGLVKPGGSLRLSCAASGFTFSNAWMSWVRQAPGKGLEWVGRIKSKTDAGTTDYAAPVKGRFTISRDDSKNTLYLQMNSLKTEDTAVYYCARDEYPWGWFDVWGQGTLVTVSS
VL: DIQMTQSPSSVSASVGDRVTITCRASQGISSWLAWYQQKPGKAPKLLIYAASSLQSGVPSRFSGSGSGTDFTLTISSLQPEDFATYYCQQYIFYPLTFGQGTKVEIK
notes: Tested as purified human IgG
Regarding B2, the EC50 with rat PMEL17 worked out at 21.7 nM; in the experiment with cyno PMEL17, 2 nM; with mouse PMEL17 it was 140 nM.

B3: Y010903 (antibody, V domains shown)
VH: EVQLVESGGGLVKPGGSLRLSCAASGFTFSNAWMSWVRQAPGKGLEWVGRIKSKTDAGTTDYAAPVKGRFTISRDDSKNTLYLQMNSLKTEDTAVYYCARASHRLHSLFDVWGQGTLVTVSS
VL: DIQMTQSPSTLSASVGDRVTITCRASQSISSWLAWYQQKPGKAPKLLIYDASSLESGVPSRFSGSGSGTEFTLTISSLQPEDFATYYCQQGLFYPHTFGQGTKVEIK
notes: Tested as purified human IgG
As for B3, the results for the 50% effective concentration (EC50) with rat PMEL17, with cyno PMEL17 and with mouse PMEL17 were 5.6 nM, 2 nM and 928 nM, respectively.

B4: Y010900 (antibody, V domains shown)
VH: EVQLVESGGGLVKPGGSLRLSCAASGFTFSNAWMSWVRQAPGKGLEWVGRIKSKTDAGTTDYAAPVKGRFTISRDDSKNTLYLQMNSLKTEDTAVYYCARTIYPSAPSSSLDYWGQGTLVTVSS
VL: DIQMTQSPSSLSASVGDRVTITCRASQGISNYLAWYQQKPGKVPKLLIYAASTLQSGVPSRFSGSGSGTDFTLTISSLQPEDVATYYCQQLIFFPLTFGQGTKVEIK
notes: Tested as purified human IgG
In the case of B4, the figures for the EC50 with rat PMEL17 and with cyno PMEL17 were 9.3 nM and 1.2 nM, respectively.

B5: Y010417 (antibody, V domains shown)
VH: EVQLVQSGAEVKKPGESLKISCKGSGYSFTSYWIGWVRQMPGKGLEWMGIIYPGDSDTRYSPSFQGQVTISADKSISTAYLQWSSLKASDTAMYYCARGSSAASGLSGDLWGQGTLVTVSS
VL: DIQMTQSPSSLSASVGDRVTITCRASQSISSYLNWYQQKPGKAPKLLIYAASSLQSGVPSRFSGSGSGTDFTLTISSLQPEDFATYYCQQDYYSPFTFGQGTKVEIK
notes: Tested as purified human IgG
As to B5, in the experiment with cyno PMEL17, the EC50 is 6.3 nM.

B6: Y010910 (antibody, V domains shown)
VH: EVQLVESGGGLVKPGGSLRLSCAASGFTFSNAWMSWVRQAPGKGLEWVGRIKSKTDAGTTDYAAPVKGRFTISRDDSKNTLYLQMNSLKTEDTAVYYCARVASPSAPGGFDYWGQGTLVTVSS
VL: DIQMTQSPSSLSASVGDRVTITCRASQGISNYLAWYQQKPGKVPKLLIYAASTLQSGVPSRFSGSGSGTDFTLTISSLQPEDVATYYCQQSLFAPFTFGQGTKVEIK
notes: Tested as purified human IgG
Take B6: the EC50 was found to be 13.7 nM with rat PMEL17, 3.5 nM with cyno PMEL17 and 41.1 nM with mouse PMEL17.

B7: Y010415 (antibody, V domains shown)
VH: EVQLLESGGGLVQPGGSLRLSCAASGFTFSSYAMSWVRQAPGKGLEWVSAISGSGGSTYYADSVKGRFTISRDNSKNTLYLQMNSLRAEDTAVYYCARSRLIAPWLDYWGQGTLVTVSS
VL: DIQMTQSPSSLSASVGDRVTITCRASQSISSYLNWYQQKPGKAPKLLIYAASSLQSGVPSRFSGSGSGTDFTLTISSLQPEDFATYYCQQVYGSPPTFGQGTKVEIK
notes: Tested as purified human IgG
As for B7, the EC50 was determined as 0.4 nM in the experiment with rat PMEL17 and 5.4 nM in the experiment with cyno PMEL17.

B8: Y010355 (antibody, V domains shown)
VH: EVQLVESGGGLVKPGGSLRLSCAASGFTFSNYWISWVRQAPGKGLEWVGRIKSKTYGGTTDYAEPVKGRFTISRDDSKNTLYLQMNSLKTEDTAVYYCARTSRRSYAFDYWGQGTLVTVSS
VL: DIQMTQSPSTLSASVGDRVTITCRASQSISSWLAWYQQKPGKAPKLLIYDASSLESGVPSRFSGSGSGTEFTLTISSLQPEDFATYYCQQITRYPVTFGQGTKVEIK
notes: Tested as purified human IgG
In the case of B8, the EC50 with rat PMEL17 was 0.8 nM; with cyno PMEL17, 3.9 nM; in the experiment with mouse PMEL17, 0.8 nM.

B9: Y010429 (antibody, V domains shown)
VH: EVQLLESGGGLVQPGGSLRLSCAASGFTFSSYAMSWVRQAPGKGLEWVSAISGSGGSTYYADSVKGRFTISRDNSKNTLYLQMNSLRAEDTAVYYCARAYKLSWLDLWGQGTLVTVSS
VL: DIQMTQSPSSLSASVGDRVTITCRASQSISSYLNWYQQKPGKAPKLLIYAASSLQSGVPSRFSGSGSGTDFTLTISSLQPEDFATYYCQQVWYAPVTFGQGTKVEIK
notes: Tested as purified human IgG
In the case of B9, the EC50 in the experiment with rat PMEL17 is 1.5 nM; with cyno PMEL17 it was 10.7 nM; in the experiment with mouse PMEL17, 60.2 nM.

B10: Y010356 (antibody, V domains shown)
VH: EVQLVESGGGLVKPGGSLRLSCAASGFTFSNYWISWVRQAPGKGLEWVGRIKSKTYGGTTDYAEPVKGRFTISRDDSKNTLYLQMNSLKTEDTAVYYCARVSGYYSHSGGFDVWGQGTLVTVSS
VL: DIQMTQSPSSLSASVGDRVTITCRASQGISNYLAWYQQKPGKVPKLLIYAASTLQSGVPSRFSGSGSGTDFTLTISSLQPEDVATYYCQKTWRTPGTFGQGTKVEIK
notes: Tested as purified human IgG
Regarding B10, the EC50 with rat PMEL17 amounted to 1.4 nM; with cyno PMEL17, 4.5 nM; in the experiment with mouse PMEL17 it was 1.4 nM.

B11: MOR024353 (antibody, V domains shown)
VH: QVQLVQSGAEVKKPGSSVKVSCKASGGTFSDYAISWVRQAPGQGLEWMGGIIPIFGDANYAQKFQGRVTITADESTSTAYMELSSLRSEDTAVYYCAREGSSYFYMAYWGQGTLVTVSS
VL: SYELTQPLSVSVALGQTARITCSGDNIGSKLASWYQQKPGQAPVLVIYDDSNRPSGIPERFSGSNSGNTATLTISRAQAGDEADYYCAATAGDRWAYVFGGGTKLTVL
notes: Tested as purified human IgG
With B11, the EC50 is 7.5 nM with rat PMEL17 and 1.6 nM with cyno PMEL17.

Source of the values: patent US20240189439A1 (Novartis, published 2024).
